Consider 1 substance from article PMC5000626, “Urinary Dopamine as a Potential Index of the Transport Activity of Multidrug and Toxin Extrusion in the Kidney” (International Journal of Molecular Sciences, 2016).

The series has as its system NCCc1ccc(O)c(O)c1. The experiment in a line: cells, lysate or membranes. The following applies: other: [3H]dopamine uptake at 1 min, HEK293 cells expressing hMATE2-K, mean ± S.E., n=3; pH 7.4; 37.0 °C.

Sequence of hMATE2-K (Homo sapiens) (chain, as listed by the source): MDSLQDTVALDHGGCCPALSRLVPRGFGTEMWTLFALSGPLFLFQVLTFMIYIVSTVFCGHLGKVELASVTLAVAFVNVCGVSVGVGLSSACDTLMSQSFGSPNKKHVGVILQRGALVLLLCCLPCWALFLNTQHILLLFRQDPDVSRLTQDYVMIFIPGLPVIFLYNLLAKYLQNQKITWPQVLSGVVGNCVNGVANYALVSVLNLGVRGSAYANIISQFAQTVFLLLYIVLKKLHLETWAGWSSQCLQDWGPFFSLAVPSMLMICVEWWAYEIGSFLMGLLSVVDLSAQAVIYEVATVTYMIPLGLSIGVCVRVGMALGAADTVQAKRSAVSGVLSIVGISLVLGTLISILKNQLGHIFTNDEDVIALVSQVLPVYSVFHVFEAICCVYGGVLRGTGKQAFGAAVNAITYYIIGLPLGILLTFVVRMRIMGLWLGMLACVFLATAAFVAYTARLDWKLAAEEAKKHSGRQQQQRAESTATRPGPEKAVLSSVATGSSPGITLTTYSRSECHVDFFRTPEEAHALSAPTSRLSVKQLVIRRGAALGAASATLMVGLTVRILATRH

Turning to hMATE2-K (Homo sapiens), the Km turned out to be 2480 ± 650 µM.
